The record followed here is PMC3114554.

Among the targets are CFP-tagged KCNQ2 (human); CFP-tagged KCNQ3 (human) (UniProt O43525); CFP-tagged KCNQ4 (human) (UniProt P56696).
Holding throughout (assay): FRET or BRET
(In BRET a luciferase serves as donor, and the signal depends on an acceptor being close.)

UniProt O43525, sequence (O43525 whole entry): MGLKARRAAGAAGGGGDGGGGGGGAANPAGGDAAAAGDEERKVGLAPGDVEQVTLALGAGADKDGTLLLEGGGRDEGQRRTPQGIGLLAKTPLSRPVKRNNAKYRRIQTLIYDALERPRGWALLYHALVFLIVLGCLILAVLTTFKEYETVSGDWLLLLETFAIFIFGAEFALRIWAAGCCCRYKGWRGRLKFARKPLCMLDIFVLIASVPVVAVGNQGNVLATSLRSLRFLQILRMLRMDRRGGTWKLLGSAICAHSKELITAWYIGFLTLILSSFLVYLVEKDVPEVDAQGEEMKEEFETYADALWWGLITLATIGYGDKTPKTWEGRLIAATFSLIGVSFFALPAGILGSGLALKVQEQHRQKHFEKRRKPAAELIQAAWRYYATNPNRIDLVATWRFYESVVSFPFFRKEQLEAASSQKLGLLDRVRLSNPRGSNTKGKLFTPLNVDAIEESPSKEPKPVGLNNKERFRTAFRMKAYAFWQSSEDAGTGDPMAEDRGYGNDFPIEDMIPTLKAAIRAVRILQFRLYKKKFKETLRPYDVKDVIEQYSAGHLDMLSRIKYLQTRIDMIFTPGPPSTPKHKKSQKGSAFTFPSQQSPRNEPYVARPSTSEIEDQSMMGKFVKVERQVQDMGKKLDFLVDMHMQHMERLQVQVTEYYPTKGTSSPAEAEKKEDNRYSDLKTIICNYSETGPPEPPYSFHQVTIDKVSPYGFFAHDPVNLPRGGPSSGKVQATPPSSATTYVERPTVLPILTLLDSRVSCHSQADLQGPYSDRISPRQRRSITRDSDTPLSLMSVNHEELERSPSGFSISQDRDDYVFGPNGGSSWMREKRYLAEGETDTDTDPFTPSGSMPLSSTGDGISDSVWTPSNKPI
UniProt P56696, sequence (P56696 whole entry): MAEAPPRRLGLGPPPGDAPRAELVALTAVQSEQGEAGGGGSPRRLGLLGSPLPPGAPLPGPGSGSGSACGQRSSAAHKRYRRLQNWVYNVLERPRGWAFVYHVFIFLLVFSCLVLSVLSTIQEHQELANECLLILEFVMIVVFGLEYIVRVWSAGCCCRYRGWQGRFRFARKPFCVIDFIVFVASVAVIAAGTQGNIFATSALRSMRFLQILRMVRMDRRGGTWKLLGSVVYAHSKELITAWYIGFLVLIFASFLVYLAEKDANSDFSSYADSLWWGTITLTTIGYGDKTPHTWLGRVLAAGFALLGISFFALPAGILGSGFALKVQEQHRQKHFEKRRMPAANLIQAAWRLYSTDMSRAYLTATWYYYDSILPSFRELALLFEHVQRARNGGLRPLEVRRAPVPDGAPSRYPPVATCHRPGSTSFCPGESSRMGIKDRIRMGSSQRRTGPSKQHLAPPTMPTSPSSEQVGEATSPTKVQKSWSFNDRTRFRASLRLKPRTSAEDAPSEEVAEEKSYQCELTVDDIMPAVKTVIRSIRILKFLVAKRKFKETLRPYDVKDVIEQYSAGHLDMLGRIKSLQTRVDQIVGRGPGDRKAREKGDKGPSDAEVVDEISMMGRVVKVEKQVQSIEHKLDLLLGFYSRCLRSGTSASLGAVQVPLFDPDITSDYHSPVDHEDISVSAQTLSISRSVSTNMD

On to “YFP-tagged ΔA-AKAP79 (from UniProt P24588 1-427) (natural protein)”, for which the FRET efficiency with CFP-tagged KCNQ2 (human) was found to be 17%; in the experiment with CFP-tagged KCNQ3 (human) it was 13%; with CFP-tagged KCNQ4 (human), 16%.
